Reference: patent publication US20200283478

How the values were obtained:
[1] = test system: T1, Compound 26
T1 sequence: SGCFIPWNLQRIGLLC

[2] = test system: T2, Compound 29
T2 sequence: SGCFIPWNLQRIGLLC

[3] = test system: T3, Compound 112
T3 sequence: WNLVRIGLTR

[4] = test system: T4, Pep2-8
T4 sequence: TVFTSWEEYLDWV

Which “FXIa cleavage of the P′ helix (immunoblot)” value (“FXIa cleavage of the P′ helix” for short) [1] does the source give for PCSK9-R167A:R215A:R218A here?
Its value is “accelerated the cleavage reaction, leading to almost complete cleavage of the P′ helix”.

What about the “FXIa cleavage of the P′ helix” value [2] of the same substance?
Its value is “accelerated the cleavage reaction, leading to almost complete cleavage of the P′ helix”.

And the “FXIa cleavage of the P′ helix” value [3]?
The value was “able to increase the FXIa-mediated cleavage of the P′ helix at R160-I161 in a similar fashion as shown for Fab33”.

And the “FXIa cleavage of the P′ helix” value [4]?
Its value is “largely prevented cleavage of the P′ helix by FXIa”.
